Assay results reported in patent US20180216136.

System: ZFN 30035 (AAVS1) (synthetic)
Test: cell_activity
Conditions: pair 30035:30054 in CD34+ cells, higher AAV6 donor dose, ZFN mRNA 40 ug/ml

Q: For “CCCCACTGTGGGGTGGAGGGGACAGATA (double strand) [AAVS1 30035 target]”, which activity (% targeted integration) is on record?
A: > 50
